Source: patent US20100047264A1 (published 2010)
Where no end group is shown, it is not given here.

Tests used:
[1] = molecular target: T1, free (non-NLP) HCV core protein (1-170) (hepatitis C virus (plasmid pCV-H77c), UniProt P27958 1-170); assay: phage display panning (Ph.D.-7 library) on HCV-C170 adsorbed to a plate, 4 rounds, elution with target protein
T1 construct: range 1-170; also called HCV-C170; free HCV-C170; not shown: His6-tag fused at the C-terminus
T1 sequence: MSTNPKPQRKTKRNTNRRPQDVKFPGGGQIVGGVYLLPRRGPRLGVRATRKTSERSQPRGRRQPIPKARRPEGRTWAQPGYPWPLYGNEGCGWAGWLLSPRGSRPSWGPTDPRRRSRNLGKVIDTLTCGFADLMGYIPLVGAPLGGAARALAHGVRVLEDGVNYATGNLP

[2] = molecular target: T2, OmpF porin purified from Salmonella typhi (Salmonella typhi, UniProt Q56113 23-363); assay: phage display panning (Ph.D-7 library) on purified OmpF coated on an ELISA plate, 3 rounds
T2 construct: also called S. typhi OmpF; OmpF antigen
T2 sequence: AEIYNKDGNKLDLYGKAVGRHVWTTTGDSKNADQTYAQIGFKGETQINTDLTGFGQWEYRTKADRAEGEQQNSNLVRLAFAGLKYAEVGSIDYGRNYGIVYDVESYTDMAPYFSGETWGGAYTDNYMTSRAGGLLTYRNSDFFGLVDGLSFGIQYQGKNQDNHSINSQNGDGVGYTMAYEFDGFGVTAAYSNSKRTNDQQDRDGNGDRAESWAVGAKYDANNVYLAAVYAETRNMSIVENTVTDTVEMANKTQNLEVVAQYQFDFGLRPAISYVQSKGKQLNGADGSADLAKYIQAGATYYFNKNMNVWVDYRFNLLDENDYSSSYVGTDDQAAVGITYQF

[3] = molecular target: T1, free (non-NLP) HCV core protein (1-170); assay: ELISA-type binding assay, free (non-NLP) HCV-C170 coated at 1 µg/ml, 2-fold serial dilution of PapMVCP-STASYTR, detected with rabbit anti-PapMV CP polyclonal
[4] = molecular target: T3, HCV core protein (1-170) NLPs (hepatitis C virus (plasmid pCV-H77c), UniProt P27958 1-170); assay: ELISA-type binding assay, HCV-C170 NLP coated at 1 µg/ml, 2-fold serial dilution of PapMVCP-STASYTR, detected with rabbit anti-PapMV CP polyclonal
T3 construct: range 1-170; also called HCV-C170 NLP; not shown: His6-tag fused at the C-terminus
T3 sequence: T1 sequence

B1: HCV core affinity peptide NASSLRS (peptide)
peptide: NASSLRS
modifications: not fully specified
B1: binds [1].

B2: HCV core affinity peptide HSPKNLH (peptide)
peptide: HSPKNLH
modifications: not fully specified
B2: binds [1].

B3: HCV core affinity peptide NTPQGMT (peptide)
peptide: NTPQGMT
modifications: not fully specified
B3: binds [1].

B4: OmpF affinity peptide FHENWPS (peptide)
peptide: FHENWPS
modifications: not fully specified
B4: binds [2].

B5: HCV core affinity peptide SIQYTGV (peptide)
peptide: SIQYTGV
modifications: not fully specified
B5: binds [1].

B6: PapMVCP-STASYTR (VLPs of PapMV coat protein fused to the HCV core affinity peptide STASYTR and a histidine tag) (designed binder)
chain: MASTPNIAFPAITQEQMSSIKVDPTSNLLPSQEQLKSVSTLMVAAKVPAASVTTVALELVNFCYDNGSSAYTTVTGPSSIPEISLAQLASIVKASGTSLRKFCRYFAPIIWNLRTDKMAPANWEASGYKPSAKFAAFDFFDGVENPAAMQPPSGLTRSPTQEERIANATNKQVHLFQAAAQDNNFASNSAFITKGQISGSTPTIQFLPPPETSSTASYTRTRHHHHHH
notes: also called PapSTA; PapMV-STASYTR
B6: binds [3]; binds [4].

B7: HCV core affinity peptide GPSTPIR (peptide)
peptide: GPSTPIR
modifications: not fully specified
B7: binds [1].

B8: HCV core affinity peptide GVQIMGR (peptide)
peptide: GVQIMGR
modifications: not fully specified
B8: binds [1].

B9: HCV core affinity peptide STASYTR (peptide)
peptide: STASYTR
modifications: not fully specified
B9: binds [1].

B10: OmpF affinity peptide FHEFWPT (peptide)
peptide: FHEFWPT
modifications: not fully specified
B10: binds [2].
